Data reported in article PMC5816707.

Assays:
TIA1 = molecular target: T1, TIA1 (Homo sapiens (cDNA from HEK293 cells), UniProt P31483 1-386); test: EMSA
T1 sequence: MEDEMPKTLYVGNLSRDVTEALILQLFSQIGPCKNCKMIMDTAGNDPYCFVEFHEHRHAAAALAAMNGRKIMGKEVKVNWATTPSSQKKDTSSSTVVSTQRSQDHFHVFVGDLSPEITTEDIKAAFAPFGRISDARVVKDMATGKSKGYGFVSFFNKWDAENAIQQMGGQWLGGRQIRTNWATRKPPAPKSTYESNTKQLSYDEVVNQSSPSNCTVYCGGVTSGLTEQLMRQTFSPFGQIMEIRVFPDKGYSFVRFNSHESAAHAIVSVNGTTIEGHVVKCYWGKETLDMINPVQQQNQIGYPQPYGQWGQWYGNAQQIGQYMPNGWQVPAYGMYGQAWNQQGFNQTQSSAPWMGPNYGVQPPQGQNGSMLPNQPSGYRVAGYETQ

TIAL1 = molecular target: T2, TIAL1 (Homo sapiens (cDNA from HEK293 cells), UniProt Q01085 1-375); test: EMSA
T2 sequence: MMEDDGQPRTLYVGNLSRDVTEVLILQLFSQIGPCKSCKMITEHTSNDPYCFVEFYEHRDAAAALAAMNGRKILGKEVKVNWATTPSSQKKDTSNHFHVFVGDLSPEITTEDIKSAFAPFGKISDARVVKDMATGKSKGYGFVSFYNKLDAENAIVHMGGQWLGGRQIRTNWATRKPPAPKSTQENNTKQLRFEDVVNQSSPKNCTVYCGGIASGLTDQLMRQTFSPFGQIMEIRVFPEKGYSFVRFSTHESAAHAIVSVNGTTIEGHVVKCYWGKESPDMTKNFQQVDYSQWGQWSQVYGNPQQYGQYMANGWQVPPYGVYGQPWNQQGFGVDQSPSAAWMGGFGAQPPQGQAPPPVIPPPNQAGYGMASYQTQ

AAAAAAAAAAAAAAAAAA (ssRNA) [poly(A)18]: no binding (TIA1); no binding (TIAL1).
